Here are results for 110 variants from publication PMC10244618.

Where “and” joins values, the source holds several entries; their conditions need not be identical. Identical values can stand only once.

B1: NF2 (merlin) isoform 7, human, full length (507 aa, lacks exons 2-3 = isoform-1 residues 39-121; exon-16 C-terminus), P35240-4 (parent)
chain: MAGAIASRMSFSSLKRKQPKTFTVRIVTMDAEMEFNCEVKKQILDEKIYCPPEASVLLASYAVQAKYGDYDPSVHKRGFLAQEELLPKRVINLYQMTPEMWEERITAWYAEHRGRARDEAEMEYLKIAQDLEMYGVNYFAIRNKKGTELLLGVDALGLHIYDPENRLTPKISFPWNEIRNISYSDKEFTIKPLDKKIDVFKFNSSKLRVNKLILQLCIGNHDLFMRRRKADSLEVQQMKAQAREEKARKQMERQRLAREKQMREEAERTRDELERRLLQMKEEATMANEALMRSEETADLLAEKAQITEEEAKLLAQKAAEAEQEMQRIKATAIRTEEEKRLMEQKVLEAEVLALKMAEESERRAKEADQLKQDLQEAREAERRAKQKLLEIATKPTYPPMNPIPAPLPPDIPSFNLIGDSLSFDFKDTDMKRLSMEIEKEKVEYMEKSKHLQEQLNELKTEIEALKLKERETALDILHNENSDRGGSSKHNTIKKPQAQGRRPICI

In the first test the parent is B1. The experiment in a line: reverse yeast two-hybrid deep mutational scan (rY2H-seq): NF2 isoform 7 mutant library as bait mated with wild-type prey strains; selection on medium lacking adenine for non-interacting pairs; NextSeq paired-end sequencing; enrichment vs …. Particulars: with KDM1A (lysine-specific histone demethylase 1A; the table's label AOF2 is a gene synonym of KDM1A), O60341; yeast diploids after mating (RBait_S3 x RPrey_S3), 30 °C, selection for reporter genes on NB agar; human tyrosine kinase ABL2 co-expressed as the active kinase …; HIGHER = WEAKER BINDING (the opposite of display enrichments): higher = stronger loss of interaction: reverse Y2H selects yeast in which bait and prey do NOT interact (growth without adenine), so a …; hits-only table; scale: rY2H score; numbering: uniprot, sequence starts at 1.
On to I127E, for which the enrichment turned out to be 11.8. Turning to A140G, the enrichment came out at 1.91. Same read-out and setting: the same measure for Y398K: 2.43. Regarding D299E, the enrichment worked out at 1.51. Still for that read-out and setting: then T308I, with 2.84; and R253Q, with 1.48. For E309K, the enrichment was 1.97. Regarding E148A, the enrichment is 1.62 and 1.74.

Consider N143M, for which the enrichment was found to be 2.18.

As to V56L, the enrichment is 1.8.

On to R89K, for which the enrichment stood at 1.9. In the case of R363L, the enrichment turned out to be 1.9.

Take A54V: the enrichment was 3.45. Same read-out and setting: the same measure for N402E: 1.73. On the same count and under the same terms, the same measure for R328L: 2.21.

Turning to P396S, the enrichment stood at 1.47.

As to R364A, the enrichment is 4.28 and 3.15.

As for K330L, the enrichment worked out at 2.59. For the variant D198G, the enrichment worked out at 2.28. On the same count and under the same terms, the same measure for M401K: 1.99 and 1.77. On the same count and under the same terms, then M401E, with 1.62; and A155C, with 1.93; and I412H, with 6.45. Same read-out and setting: then G419E, with 4.86. On to R335S, for which the enrichment was 1.9. On the same count and under the same terms, then R335L, with 3.71.

Consider A65V, for which the enrichment is 1.9. Same read-out and setting: then A365K, with 2.

Regarding N137R, the enrichment was 2.21.

On to R243K, for which the enrichment came to 1.55. Same read-out and setting: the same measure for A316E: 2.69. On the same count and under the same terms, then Q82D, with 1.58; and T394A, with 1.4. Still for that read-out and setting: then K126E, with 22.9; and E245Y, with 1.47. Regarding M262D, the enrichment came to 5.37.

As for A59V, the enrichment is 1.61. Same read-out and setting: the same measure for E321L: 3.26.

The same test, now with this note: with NF2 C-terminal domain (wild type; homomeric NF2-NF2 interaction), P35240; yeast diploids after mating (RBait_S3 x RPrey_S3), 30 °C, selection for reporter genes on NB agar; human ABL2 co-expressed as the kinase-dead K35M mutant …; HIGHER = WEAKER BINDING (the opposite of display enrichments): higher = stronger loss of interaction: reverse Y2H selects yeast in which bait and prey do NOT interact (growth without adenine), so a …; hits-only table; partner unresolved; scale: rY2H score; numbering: uniprot, sequence starts at 1.
On to E132K, for which the enrichment is 5.61. Same read-out and setting: then E132L, with 1.84; and T336D, with 3.64; and A140G, with 1.75.

In the case of L167K, the enrichment is 1.57. Still for that read-out and setting: then E309K, with 1.83; and A406L, with 10; and N143M, with 1.65 and 1.37.

Regarding E310L, the enrichment was determined as 1.51. The same measure, in the same setting: then S73P, with 2.96; and V27L, with 2.04; and R363L, with 2.55.

For the variant Y70H, the enrichment amounted to 1.43.

Turning to R248L, the enrichment stood at 2.23. Regarding Q376A, the enrichment stood at 5.78. The same measure, in the same setting: the same measure for A266L: 3.08; for L475K: 4.06; for L291E: 2.16. On the same count and under the same terms, the same measure for A287E: 3.57 and 6.74; for L408C: 1.37. The same measure, in the same setting: the same measure for R293K: 7.18. On to A298E, for which the enrichment is 2.55 and 1.66. In the case of D69L, the enrichment is 1.7. The same measure, in the same setting: the same measure for L315R: 1.62.

Turning to P19E, the enrichment was found to be 3.9. Still for that read-out and setting: the same measure for E380K: 3.26; for D118K: 4.21; for N137Q: 1.42. Same read-out and setting: then F139E, with 20.1; and H479A, with 4.46; and H491L, with 2.51.

Turning to A302K, the enrichment worked out at 1.89. Same read-out and setting: the same measure for K395S: 2.15; for T394K: 1.65; for T394R: 3.98. Still for that read-out and setting: then K126L, with 1.8 and 2.78.

For S423L, the enrichment was found to be 2.58. On the same count and under the same terms, then E245K, with 3.75; and E245A, with 1.58; and M262D, with 6.41.

Turning to E83K, the enrichment worked out at 18.2. Still for that read-out and setting: then D374A, with 1.98. Take E321A: the enrichment stood at 1.62. On the same count and under the same terms, then T297L, with 3.13. Still for that read-out and setting: then Q236A, with 2.27; and L353K, with 3.06.

The same test, now with this note: with PIK3R3 (phosphatidylinositol 3-kinase regulatory subunit gamma), Q92569; yeast diploids after mating (RBait_S3 x RPrey_S3), 30 °C, selection for reporter genes on NB agar; human tyrosine kinase ABL2 co-expressed as the active kinase …; HIGHER = WEAKER BINDING (the opposite of display enrichments): higher = stronger loss of interaction: reverse Y2H selects yeast in which bait and prey do NOT interact (growth without adenine), so a …; hits-only table; scale: rY2H score; numbering: uniprot, sequence starts at 1.
Regarding G68V, the enrichment was 7.34. On the same count and under the same terms, then T336E, with 3.42. On the same count and under the same terms, the same measure for A140V: 2.13.

In the case of R253Q, the enrichment came out at 1.57.

As to E309K, the enrichment stood at 3.02.

Regarding V56L, the enrichment is 1.92. R89G: the enrichment worked out at 1.41. Same read-out and setting: the same measure for S73A: 4.51; for N402E: 1.42. Take K388E: the enrichment was found to be 3.32. Take P396K: the enrichment stood at 4.88. Consider D194N, for which the enrichment came to 1.96. The same measure, in the same setting: the same measure for K191S: 2.28; for T147A: 5.43. Same read-out and setting: the same measure for R364A: 2.87; for A287E: 2.8; for K460L: 10.6. Still for that read-out and setting: the same measure for V24A: 2.39; for E234K: 1.73. For M401Q, the enrichment turned out to be 2.91. Same read-out and setting: the same measure for M401K: 2.17. On the same count and under the same terms, the same measure for M401E: 2.14.

As to V63K, the enrichment is 2. Regarding A155T, the enrichment was found to be 2.16. Still for that read-out and setting: then A155C, with 1.8 and 1.98.

With R485K, the enrichment worked out at 6.26. Still for that read-out and setting: then A365K, with 2.58; and A365G, with 2.6; and N137R, with 2.63. Same read-out and setting: then S294V, with 1.71; and S294F, with 2.27; and A316E, with 2.22 and 3.1. For E458L, the enrichment stood at 13.6. On the same count and under the same terms, the same measure for L207G: 1.42; for T394S: 1.98. Same read-out and setting: the same measure for T394A: 2.14. On the same count and under the same terms, then Q498E, with 1.97; and M262D, with 15.7; and A59V, with 2.52. In the case of E321L, the enrichment was found to be 3.49. In the case of T297L, the enrichment is 1.67.

With L353P, the enrichment came to 1.53.

Regarding L216P, the enrichment stood at 3.07.

Staying with this test, now noted: with KDM1A (lysine-specific histone demethylase 1A; the table's label AOF2 is a gene synonym of KDM1A), O60341; yeast diploids after mating (RBait_S3 x RPrey_S3), 30 °C, selection for reporter genes on NB agar; human ABL2 co-expressed as the kinase-dead K35M mutant …; HIGHER = WEAKER BINDING (the opposite of display enrichments): higher = stronger loss of interaction: reverse Y2H selects yeast in which bait and prey do NOT interact (growth without adenine), so a …; hits-only table; scale: rY2H score; numbering: uniprot, sequence starts at 1.
As for E472A, the enrichment amounted to 3.64.

For R471A, the enrichment stood at 3.18. On the same count and under the same terms, then K460L, with 4.85. Consider N492E, for which the enrichment turned out to be 1.69. Still for that read-out and setting: then S423E, with 9.11; and Q498L, with 1.65.
